In the supplement of paper PMC12042874:
± gives the uncertainty stated by the source.

Experiment: amyloid nucleation score (Sup35N fusion, yeast selection) (log enrichment); library NNK2; higher = more nucleation; inactive = no reads after selection
How it was run: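 Peptides of 20 random codons fused to Sup35N were expressed in psi-negative yeast, induced 24 hours with 100 μM copper sulfate, then grown 7 days at 30°C on medium lacking adenine and uracil. Input and output plasmid inserts were Illumina-sequenced. Nucleation score is the DiMSum log enrichment of output over input reads, centred on the mode score of non-aggregating sequences, excluding sequences with under 100 input reads. Random libraries had three technical output replicates.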

Substance: ITDGLYLTWGFDP
- amyloid nucleation score: 0.931 ± 0.74

Substance: VQIKLRQFTNKAFYTESMST
- amyloid nucleation score: -0.053 ± 0.63

Substance: YYLYWHFKIYWRQHLVNAFN
- amyloid nucleation score: -1 ± 1.1

Substance: HALGGDWHGLGGINS
- amyloid nucleation score: -1.43 ± 0.55

Substance: LVEAFYNVWRRTSAHCETVC
- amyloid nucleation score: -0.272 ± 0.55

Substance: SSLTPHWRVRKYDWYSIGSG
- amyloid nucleation score: -0.8 ± 0.41

Substance: LFRCELSLGRHMGFLDWEWG
- amyloid nucleation score: 0.201 ± 0.38

Substance: GWRFL
- amyloid nucleation score: -1.17 ± 0.54

Substance: MYRVLAICNRTVRKG
- amyloid nucleation score: -0.562 ± 0.61

Substance: DRLGTYSS
- amyloid nucleation score: 0.409 ± 0.54

Substance: NMYTWAE
- amyloid nucleation score: 0.371 ± 0.6

Substance: IEGREGCARDNKGYYTALLL
- amyloid nucleation score: inactive

Substance: FQIMKAYDTLPFLVYPVTGD
- amyloid nucleation score: -0.117 ± 0.79

Substance: IYACSCLIKVDFYEAIPIWV
- amyloid nucleation score: inactive

Substance: IQINLLNSGYSFRLRASKFS
- amyloid nucleation score: 2.89 ± 0.075

Substance: DVAYSYRHECIADKLLRVEH
- amyloid nucleation score: 0.019 ± 0.55

Substance: AMYLPWARCSISPTNLIFNL
- amyloid nucleation score: -1.1 ± 0.42

Substance: ILYVACSNMRCPILFMAGA
- amyloid nucleation score: 2.12 ± 0.12

Substance: DTWTYVAWFLYIIICSRQTE
- amyloid nucleation score: -0.623 ± 0.35

Substance: VVIAKDIMFSGSRINMVGSV
- amyloid nucleation score: -1.23 ± 1.1

Substance: LEPGAFRSIVFRIND
- amyloid nucleation score: 0.961 ± 0.48

Substance: VYKYI
- amyloid nucleation score: -0.578 ± 1.1

Substance: LHFSGFTKFRFIMVFGKKVC
- amyloid nucleation score: -1.24 ± 0.49

Substance: VQDQNRREAEVSSKGGTCSW
- amyloid nucleation score: -0.42 ± 0.35

Substance: IWTRLGYRQVPRYSAIFSAV
- amyloid nucleation score: 0.136 ± 0.37

Substance: QTNYEAHFDRVINYAFVHLF
- amyloid nucleation score: -0.392 ± 0.79

Substance: ELLSRETIKDHWMTIIKYFL
- amyloid nucleation score: -0.143 ± 0.74

Substance: ACVWNDIEGMNTFTVNSFFL
- amyloid nucleation score: 3.39 ± 0.16

Substance: AAIMDTKVWLPETWHTF
- amyloid nucleation score: 4.86 ± 0.049

Substance: IWYESWEQHGKDVQVPMVTD
- amyloid nucleation score: 0.623 ± 0.22

Substance: FYYVFYLNSLAVAGHLRILD
- amyloid nucleation score: inactive

Substance: RYPIVRTDMYIIVKFI
- amyloid nucleation score: 0.509 ± 0.81

Substance: HAFRDIMYTVTRSWAKRWFY
- amyloid nucleation score: 1.56 ± 0.11

Substance: SYSMLIMFFFVIKYRSDFQL
- amyloid nucleation score: inactive

Substance: WLVFQFYVRGRREMVS
- amyloid nucleation score: 1.4 ± 0.2

Substance: SEFVGSYWGFDLMLGLD
- amyloid nucleation score: -0.807 ± 1

Substance: FFGTMV
- amyloid nucleation score: -0.19 ± 0.37

Substance: FGYHGSYMWYAFQGHYNKGY
- amyloid nucleation score: 0.743 ± 0.42

Substance: ARGGKLLSCFCSGWRLDHVR
- amyloid nucleation score: 9.958 ± 0.051

Substance: CYIRSVFSQWLTACLVNWFM
- amyloid nucleation score: -1.86 ± 1.1

Substance: PTIMLTGR
- amyloid nucleation score: 0.208 ± 0.65

Substance: LSNWHHFSQSRDFDKSLWVS
- amyloid nucleation score: -0.386 ± 0.42

Substance: LFMFGFGIL
- amyloid nucleation score: 0.05 ± 0.42

Substance: IVNTELVLVDKLDSCIVRYN
- amyloid nucleation score: 3.02 ± 0.17

Substance: SSMSLWFMHYRNSKSCL
- amyloid nucleation score: -0.721 ± 0.33

Substance: TMGGSGDGRY
- amyloid nucleation score: inactive

Substance: STELYARMVKCCVGIADYTD
- amyloid nucleation score: 0.491 ± 0.66

Substance: IPNYLSYTWILYNYTFLGAC
- amyloid nucleation score: 0.719 ± 0.38

Substance: WWYGGLEMGFIICFRIPNVI
- amyloid nucleation score: -0.606 ± 1.1

Substance: IVPSQH
- amyloid nucleation score: 0.271 ± 0.44

Substance: GFSIVNQDWYS
- amyloid nucleation score: 0.675 ± 0.35

Substance: SDWII
- amyloid nucleation score: -0.063 ± 0.56

Substance: DIWKTQ
- amyloid nucleation score: 0.218 ± 0.8

Substance: WRQLRSPVYRPYCL
- amyloid nucleation score: -0.124 ± 0.32

Substance: INWSHRGIISLDERMIIQYV
- amyloid nucleation score: 0.154 ± 0.65

Substance: VSRVEYCSGCMSANYLL
- amyloid nucleation score: 7.7 ± 0.08

Substance: NEPETLWFLLVVWEGINISP
- amyloid nucleation score: 0.561 ± 0.64

Substance: MWPHRFM
- amyloid nucleation score: 0.72 ± 0.28

Substance: ISLNLVVN
- amyloid nucleation score: -0.272 ± 0.8

Substance: FYLNRKRVYLSDGCRAFR
- amyloid nucleation score: 0.252 ± 0.51

Substance: WCYELIYV
- amyloid nucleation score: -0.573 ± 0.79

Substance: FDMEIFTYGGTSNNFGHCDD
- amyloid nucleation score: inactive

Substance: CIISFGLMHEYCYVAM
- amyloid nucleation score: 1.9 ± 0.13

Substance: PTSCSSRN
- amyloid nucleation score: -0.055 ± 1.1

Substance: SLGIVNSHIFAMWTFSSMGA
- amyloid nucleation score: 3.74 ± 0.065

Substance: FSIISGCFRNVVDLLRMLNL
- amyloid nucleation score: -1.2 ± 1.1

Substance: NIWFKFPHVLNS
- amyloid nucleation score: -0.063 ± 0.76

Substance: MPAFWSWSERGLSVRILGPA
- amyloid nucleation score: 3.05 ± 0.084

Substance: EMIIL
- amyloid nucleation score: -0.259 ± 0.32

Substance: YTLNPGFHHRFCVWTA
- amyloid nucleation score: inactive

Substance: FCFISSYVPKLYSLKSQVVI
- amyloid nucleation score: -0.988 ± 0.39

Substance: IRCCVQFIQLSQGNNVWVRS
- amyloid nucleation score: 6.07 ± 0.081

Substance: WQENFSHCNLSMLCEVNLSK
- amyloid nucleation score: -0.44 ± 0.49

Substance: DTLCYNRMWFLPGLKMDLGG
- amyloid nucleation score: 7.62 ± 0.054

Substance: TLIIWLTSICVVSGFVLSGE
- amyloid nucleation score: 0.137 ± 0.25

Substance: SYSPSVQ
- amyloid nucleation score: -0.043 ± 0.55

Substance: YHCENDEALIRDSGPSKTTK
- amyloid nucleation score: 0.485 ± 0.41

Substance: YSYKFAAVSMIWVYPCEHTS
- amyloid nucleation score: 1.71 ± 0.18

Substance: NITKTRHFLSLNYYNVYAFS
- amyloid nucleation score: 5.05 ± 0.056

Substance: YSYVVNLLTYTRSECKMLV
- amyloid nucleation score: 5.738 ± 0.035

Substance: GMPVLV
- amyloid nucleation score: 0.093 ± 0.26

Substance: FVPFYYKADKLTILSS
- amyloid nucleation score: inactive

Substance: ALWTLNDSSPDYKSPYTGGS
- amyloid nucleation score: 0.508 ± 0.6

Substance: SATEWIISVGGRAWRF
- amyloid nucleation score: 2.65 ± 0.12

Substance: NTRCGCWLVSAML
- amyloid nucleation score: 0.196 ± 0.77

Substance: CCQSSEYCWCAWQTSVTSVG
- amyloid nucleation score: 0.404 ± 0.8

Substance: PWHVYFDRNGWPYGSQRVQG
- amyloid nucleation score: 0.718 ± 0.57

Substance: CLPFYCTFGSVVARAGVYH
- amyloid nucleation score: inactive

Substance: LVQYMTMRCVFSNIGGMTSG
- amyloid nucleation score: 0.263 ± 0.64

Substance: SLLFVNNWFSVCRKASCIGN
- amyloid nucleation score: 7.787 ± 0.052

Substance: FYGQMRSKVLCLFH
- amyloid nucleation score: -1.02 ± 0.76

Substance: HNLEWKNRNQTWSSLTPIVW
- amyloid nucleation score: 0.384 ± 0.44

Substance: SGHTRVGDFSF
- amyloid nucleation score: 0.158 ± 0.3

Substance: ICFGGTLSWSCVVAILNLSN
- amyloid nucleation score: 5.616 ± 0.027

Substance: IGIAKYLREGRSSPTESL
- amyloid nucleation score: -0.5 ± 0.33

Substance: NVLRFSSTSLYGLAFLAEGS
- amyloid nucleation score: -0.577 ± 0.3

Substance: LRYAYTFDVDLSTRQAAVSL
- amyloid nucleation score: -0.573 ± 0.79

Substance: LKQTGQLRVMSN
- amyloid nucleation score: 0.039 ± 0.79

Substance: NLVTYDLE
- amyloid nucleation score: 3.79 ± 0.052

Substance: TVQDMFIFIFYVYNSFGRYM
- amyloid nucleation score: 3.35 ± 0.052

Substance: LHPLVSLVVHTFMPEVRLVL
- amyloid nucleation score: inactive

Substance: LIMYGTKLSRLVMLLYYWTW
- amyloid nucleation score: 0.031 ± 0.34

Substance: SGLVVMRLLFLRGY
- amyloid nucleation score: -0.558 ± 0.54

Substance: SRVIVGLWYDGRVKPLELCM
- amyloid nucleation score: 0.342 ± 0.62

Substance: SVCLSPYLSLNYFYWWNSKR
- amyloid nucleation score: 8.377 ± 0.046

Substance: DAVFGTCSLFCRTCAKASFG
- amyloid nucleation score: 1.58 ± 0.25

Substance: SSYNCPHINVCSPSAPNTQM
- amyloid nucleation score: inactive

Substance: VLPGKVRPFCGSMCNSFFSL
- amyloid nucleation score: 0.157 ± 1

Substance: SMLESNFRGFFYQ
- amyloid nucleation score: 2.56 ± 0.15

Substance: LGIYVFAFKRMVNMEDLYTR
- amyloid nucleation score: -1.05 ± 0.41

Substance: QRDCSYEYLTTKLTAELRGS
- amyloid nucleation score: 0.216 ± 0.55

Substance: WSRIGG
- amyloid nucleation score: -0.498 ± 0.63

Substance: LMTSDAGSLAIVVVNCNFGT
- amyloid nucleation score: 7.942 ± 0.023

Substance: RMDGNLQGHDDCVNV
- amyloid nucleation score: 0.773 ± 0.29

Substance: DRYVSV
- amyloid nucleation score: 0.455 ± 0.43

Substance: IIDNYNYMF
- amyloid nucleation score: -0.963 ± 1.1

Substance: PYATNSRRNRNVYLRPHCQI
- amyloid nucleation score: 1.77 ± 0.12

Substance: NLVYYYHLLSRIVNSYNDAL
- amyloid nucleation score: 0.811 ± 0.82

Substance: TPLYFRYVTIHYRGHVKVDV
- amyloid nucleation score: 0.688 ± 0.81

Substance: NFMNKMFALTWCCIDKILCG
- amyloid nucleation score: -1.1 ± 0.78

Substance: TVHFLHILIIFRSWSEGMPV
- amyloid nucleation score: -0.345 ± 0.74

Substance: RLYPLIVQFFMVCKT
- amyloid nucleation score: 1.48 ± 0.23

Substance: QLIIMCVMGEQTICTVCHTG
- amyloid nucleation score: 7.153 ± 0.042

Substance: LLDYLYDIGRHTKGK
- amyloid nucleation score: -0.337 ± 1.1

Substance: QDRGHSVL
- amyloid nucleation score: inactive

Substance: ISERKCCKVLYISAIRVLNF
- amyloid nucleation score: 0.034 ± 1.1

Substance: DRWLVFPSNRPVFVMDRFNG
- amyloid nucleation score: -0.414 ± 0.64
